For one substance, in vitro receptor assay (PP2C activity, 2:1 receptor to phosphatase); IC50 of fenhexamid results are on record in patent publication US20110271408A1.

This experiment deals with HAB1 (PP2C used in the in vitro phosphatase activity assays) (UniProt Q9CAJ0). Description: cell-based or functional assay.
Chain of HAB1 (PP2C used in the in vitro phosphatase activity assays) (Q9CAJ0 23-511 limits assumed): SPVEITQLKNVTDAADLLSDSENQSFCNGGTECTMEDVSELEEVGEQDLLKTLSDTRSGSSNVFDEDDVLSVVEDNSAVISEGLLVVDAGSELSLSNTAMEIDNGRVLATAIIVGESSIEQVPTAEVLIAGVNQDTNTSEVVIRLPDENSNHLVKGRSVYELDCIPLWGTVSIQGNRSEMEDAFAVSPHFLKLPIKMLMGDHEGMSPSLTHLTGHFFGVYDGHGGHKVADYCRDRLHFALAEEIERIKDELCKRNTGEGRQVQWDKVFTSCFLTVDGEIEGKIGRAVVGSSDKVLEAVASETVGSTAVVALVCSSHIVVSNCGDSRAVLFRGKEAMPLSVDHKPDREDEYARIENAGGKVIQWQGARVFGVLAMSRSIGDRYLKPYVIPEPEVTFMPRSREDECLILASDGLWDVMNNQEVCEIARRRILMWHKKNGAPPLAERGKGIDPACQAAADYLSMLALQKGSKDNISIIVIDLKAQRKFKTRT

For the substance “PYR1 K59R, Y120H, M158I triple mutant (recombinant protein) (from UniProt O49686 1-191) (receptor)”, the in vitro receptor assay (PP2C activity, 2:1 receptor to phosphatase); IC50 of fenhexamid was 400 nM.
